Kd data for 32 molecules are collected here from PMC10786891, “Massively parallel profiling of RNA-targeting CRISPR-Cas13d”.

Where a chain is given by its changes, count along the chain named. Names may count otherwise.

T1: EsCas13d, nuclease-dead (Eubacterium siraeum, UniProt B0MS50, R295A;H300A;R849A;H854A)
T1 sequence: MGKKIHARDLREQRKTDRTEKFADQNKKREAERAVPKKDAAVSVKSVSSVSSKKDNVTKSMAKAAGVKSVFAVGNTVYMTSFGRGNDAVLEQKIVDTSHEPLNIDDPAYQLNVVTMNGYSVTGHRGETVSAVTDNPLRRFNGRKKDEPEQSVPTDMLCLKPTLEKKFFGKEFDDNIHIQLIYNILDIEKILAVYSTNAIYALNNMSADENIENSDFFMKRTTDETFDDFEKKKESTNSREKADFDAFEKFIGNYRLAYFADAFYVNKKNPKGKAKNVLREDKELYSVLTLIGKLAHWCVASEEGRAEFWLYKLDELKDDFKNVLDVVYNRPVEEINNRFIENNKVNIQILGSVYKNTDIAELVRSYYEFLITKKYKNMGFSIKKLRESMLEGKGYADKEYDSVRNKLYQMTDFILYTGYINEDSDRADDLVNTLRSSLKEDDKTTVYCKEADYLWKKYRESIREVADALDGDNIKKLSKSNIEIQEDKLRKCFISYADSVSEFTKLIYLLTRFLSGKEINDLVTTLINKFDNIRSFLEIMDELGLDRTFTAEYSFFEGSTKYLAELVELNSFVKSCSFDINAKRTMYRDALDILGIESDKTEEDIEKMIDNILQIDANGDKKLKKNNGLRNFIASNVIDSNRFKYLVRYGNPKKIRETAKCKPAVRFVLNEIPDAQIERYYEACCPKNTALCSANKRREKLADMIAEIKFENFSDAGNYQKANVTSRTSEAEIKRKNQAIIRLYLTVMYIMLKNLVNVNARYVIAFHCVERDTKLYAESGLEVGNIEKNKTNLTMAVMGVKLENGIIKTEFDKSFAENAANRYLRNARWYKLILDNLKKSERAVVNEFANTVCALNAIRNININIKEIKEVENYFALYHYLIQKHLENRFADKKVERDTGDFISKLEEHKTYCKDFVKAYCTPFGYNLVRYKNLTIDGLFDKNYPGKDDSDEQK

B1: target 1 insG 3' of 4,insG 3' of 4 (mixed)
RNA 1: CACCCGUGCAAAAAUGCAGGGGUCUAAAACUGAGCGGAUAACCUCUCUAUGG
RNA 2: GGGAAUGGAUCCACAUCUACGAAUUCGUACCAUAGAGAGGUUAUCCGCGGUCACCGAGAUCGGAAGAGCACACGU
B2: target 1 insU 3' of 12,insA 3' of 12 (mixed)
RNA 1: B1 RNA 1
RNA 2: B1 RNA 2 with U42A, A43U, C45A, C46U, G47C, G50C
B3: target 1 insU 3' of 7,insC 3' of 1 (mixed)
RNA 1: B1 RNA 1
RNA 2: B1 RNA 2 with C46U, G47C, C48G, G49C, G50U, U51C, C52A, A53C
B4: target 1 U19A,A20U (mixed)
RNA 1: B1 RNA 1
RNA 2: GGGAAUGGAUCCACAUCUACGAAUUCGUACCUAAGAGAGGUUAUCCGCUCACCGAGAUCGGAAGAGCACACGU
B5: target 1 insG 3' of 19,insA 3' of 10 (mixed)
RNA 1: B1 RNA 1
RNA 2: GGGAAUGGAUCCACAUCUACGAAUUCGUACCAUGAGAGAGGUUAAUCCGCUCACCGAGAUCGGAAGAGCACACGU
B6: target 1 insU 3' of 7,insG 3' of 4 (mixed)
RNA 1: B1 RNA 1
RNA 2: B1 RNA 2 with C46U, G47C, C48G, G49C
B7: target 1 del9,del14 (mixed)
RNA 1: B1 RNA 1
RNA 2: GGGAAUGGAUCCACAUCUACGAAUUCGUACCAUAGAGGGUUUCCGCUCACCGAGAUCGGAAGAGCACACGU
B8: target 1 U11A,C21U (mixed)
RNA 1: B1 RNA 1
RNA 2: B4 RNA 2 with C31U, U32A, A33U, U41A
B9: target 1 del13,del17 (mixed)
RNA 1: B1 RNA 1
RNA 2: B7 RNA 2 with G35A, A36G, G37A, G39U, U41A
B10: target 1 C7G,U10C (mixed)
RNA 1: B1 RNA 1
RNA 2: B4 RNA 2 with U32A, A33U, U42C, C45G
B11: target 1 C7A,U11C (mixed)
RNA 1: B1 RNA 1
RNA 2: B4 RNA 2 with U32A, A33U, U41C, C45A
B12: target 1 A9U,G12U (mixed)
RNA 1: B1 RNA 1
RNA 2: B4 RNA 2 with U32A, A33U, G40U, A43U
B13: target 1 insC 3' of 13,insU 3' of 1 (mixed)
RNA 1: B1 RNA 1
RNA 2: GGGAAUGGAUCCACAUCUACGAAUUCGUACCAUAGAGAGCGUUAUCCGCUCAUCCGAGAUCGGAAGAGCACACGU
B14: target 1 C7G,A20U (mixed)
RNA 1: B1 RNA 1
RNA 2: B4 RNA 2 with A33U, C45G
B15: target 1 C7G,A14G (mixed)
RNA 1: B1 RNA 1
RNA 2: B4 RNA 2 with U32A, A33U, A38G, C45G
B16: target 1 insA 3' of 5 (mixed)
RNA 1: B1 RNA 1
RNA 2: GGGAAUGGAUCCACAUCUACGAAUUCGUACCAUAGAGAGGUUAUCCGACUCACCGAGAUCGGAAGAGCACACGU
B17: target 1 insU 3' of 18,insC 3' of 8 (mixed)
RNA 1: B1 RNA 1
RNA 2: B5 RNA 2 with G34A, A35U, A45U, U46C
B18: target 1 insA 3' of 21,insG 3' of 2 (mixed)
RNA 1: B1 RNA 1
RNA 2: B5 RNA 2 with U33A, G34U, A45U, U46C, C48G, G49C, C50U, U51C, C52G
B19: target 1 A1U,G15U (mixed)
RNA 1: B1 RNA 1
RNA 2: B4 RNA 2 with U32A, A33U, G37U, A51U
B20: target 1 insG 3' of 18,insA 3' of 11 (mixed)
RNA 1: B1 RNA 1
RNA 2: B5 RNA 2 with G34A, A35G, U43A, A44U
B21: target 1 U8C,G12U (mixed)
RNA 1: B1 RNA 1
RNA 2: B4 RNA 2 with U32A, A33U, G40U, U44C
B22: target 1 C6G,U11G (mixed)
RNA 1: B1 RNA 1
RNA 2: B4 RNA 2 with U32A, A33U, U41G, C46G
B23: target 1 A1U,U11A (mixed)
RNA 1: B1 RNA 1
RNA 2: B4 RNA 2 with U32A, A33U, U41A, A51U
B24: target 1 U3C,G5U (mixed)
RNA 1: B1 RNA 1
RNA 2: B4 RNA 2 with U32A, A33U, G47U, U49C
B25: target 1 insU 3' of 21,insC 3' of 20 (mixed)
RNA 1: B1 RNA 1
RNA 2: GGGAAUGGAUCCACAUCUACGAAUUCGUACCUACUAGAGAGGUUAUCCGCUCACCGAGAUCGGAAGAGCACACGU
B26: target 1 A1U,U8C (mixed)
RNA 1: B1 RNA 1
RNA 2: B4 RNA 2 with U32A, A33U, U44C, A51U
B27: target 1 A20U,C21U (mixed)
RNA 1: B1 RNA 1
RNA 2: B4 RNA 2 with C31U, A33U
B28: target 1 C4U,A9U (mixed)
RNA 1: B1 RNA 1
RNA 2: B4 RNA 2 with U32A, A33U, A43U, C48U
B29: target 1 insA 3' of 10,insG 3' of 2 (mixed)
RNA 1: B1 RNA 1
RNA 2: B13 RNA 2 with C40G, G41U, U43A, A52G, U53A
B30: target 1 G5C,U19G (mixed)
RNA 1: B1 RNA 1
RNA 2: B4 RNA 2 with U32A, A33G, G47C
B31: target 1 insC 3' of 19,insG 3' of 8 (mixed)
RNA 1: B1 RNA 1
RNA 2: B5 RNA 2 with G34C, A45U, U46G
B32: target 1 insG 3' of 10,insU 3' of 6 (mixed)
RNA 1: B1 RNA 1
RNA 2: B1 RNA 2 with A43G, U44A, C45U, G47C, C48U, G50C

A word on the Kd: it is the concentration at which binding is half-saturated.

In the data set the target is T1, EsCas13d, nuclease-dead. Put plainly: crRNA (strand 1, pre-loaded); Mg2+; 40 mM Tris-HCl pH 7.5, 150 mM NaCl, 6 mM MgCl2, 1 mM DTT, 0.1% Tween-20, 0.2 mg/ml BSA; 25 C; 10 min per concentration, then washed. The conditions noted are these: tags: His6-TwinStrep-SUMO cleaved; N-terminal SNAP kept (SNAP-Surface 488); label: 3' end held by stalled T7 RNA polymerase.
In turn, B1 yielded a Kd of 5.72 ± 0.26 nM.
Molecule B2 showed a Kd of 10.1 ± 0.5 nM.
Then B3, with 13.9 ± 0.6 nM; and B4, with 47 ± 4 nM.
For B5, the affinity, expressed as Kd, was 59 ± 5 nM.
B6 came in with an equilibrium dissociation constant (Kd) of 7.41 ± 0.26 nM.
Then B7, with 28 ± 1.8 nM; and B8, with 8.3 ± 0.5 nM.
The molecule B9 had a dissociation constant Kd of 55 ± 20 nM.
Then B10, with 24.6 ± 2.2 nM; and B11, with 8.4 ± 0.4 nM.
With B12 the figure was 10.9 ± 1.1 nM; with B13, 11.5 ± 1.1 nM.
Then B14, with 47 ± 6 nM.
B15: the dissociation constant (Kd) was determined as 17.7 ± 1.2 nM. This Kd is about 2.7-fold lower than that of the molecule before.
With B16 the figure was 6.2 ± 0.4 nM; with B17, 53 ± 4 nM; with B18, 16 ± 0.9 nM.
With B19 the figure was 25.9 ± 3 nM; with B20, 89 ± 11 nM.
With B21 the figure was 10.7 ± 0.6 nM; with B22, 9.6 ± 0.5 nM.
In turn, B23 gave a Kd of 37.8 ± 3 nM.
Then B24, with 42 ± 9 nM.
Then B25, with 13.5 ± 1 nM.
With B26 the figure was 11.2 ± 0.5 nM; with B27, 19.5 ± 1.2 nM.
The molecule B28 came in with a dissociation constant (Kd) of 50 ± 16 nM. Against the preceding molecule, the Kd is about 2.6-fold higher.
For B29, binding was characterised by a dissociation constant (Kd) of 12.4 ± 0.7 nM.
Then B30, with 30 ± 4 nM.
Then B31, with 45 ± 7 nM; and B32, with 36.8 ± 3.1 nM.
